# Laboratory results taken from patent publication US20230277625A1 (SIMCHA IL 18, published 2023).
# T1: Mouse IL-18Rα ectodomain (amino acids 19-329), biotinylated (mouse, UniProt Q61098 19-329, biotin on the AviTag (BirA ligase))
# T1 construct: range 19-329; Secreted from Expi293 cells (H7 signal peptide removed); also called mIL-18Rα; mIL18Ra
# T1 sequence: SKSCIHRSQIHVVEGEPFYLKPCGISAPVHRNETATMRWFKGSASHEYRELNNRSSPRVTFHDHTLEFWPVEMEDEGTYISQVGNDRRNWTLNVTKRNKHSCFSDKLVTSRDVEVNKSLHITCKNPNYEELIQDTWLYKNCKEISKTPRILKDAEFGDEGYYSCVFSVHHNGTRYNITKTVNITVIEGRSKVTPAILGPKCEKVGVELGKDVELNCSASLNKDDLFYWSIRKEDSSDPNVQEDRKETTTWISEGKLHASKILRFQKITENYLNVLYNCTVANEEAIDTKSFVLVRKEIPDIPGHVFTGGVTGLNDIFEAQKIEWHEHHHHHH
# T2: Mouse IL-18BP (amino acids 31-194), biotinylated (mouse, UniProt Q9Z0M9 29-193, biotin on the AviTag (BirA ligase))
# T2 construct: also called mIL-18BP
# T2 sequence: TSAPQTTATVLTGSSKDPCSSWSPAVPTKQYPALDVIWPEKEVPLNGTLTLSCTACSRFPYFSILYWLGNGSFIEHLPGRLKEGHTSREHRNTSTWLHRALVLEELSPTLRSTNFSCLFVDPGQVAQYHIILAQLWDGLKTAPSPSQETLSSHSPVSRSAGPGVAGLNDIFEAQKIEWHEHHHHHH
# Tests used:
# [1] = molecular target: T1, Mouse IL-18Rα ectodomain (amino acids …); test: SPR
# [2] = molecular target: T1, Mouse IL-18Rα ectodomain (amino acids …); test: on-yeast binding isotherm (flow cytometry)
# Description: (§1) Individual colonies of IL-18 yeast were grown overnight at 30° C. in SDCAA liquid media and induced in SGCAA liquid media for 1 day at 20° C. IL-18 display levels on yeast were verified by flow cytometry using an anti-cMyc tag antibody (anti-myc-PE; Cell Signaling Technologies). Receptor staining with biotinylated IL-18Rα (with or without IL-18R β) or biotinylated IL-18BP was performed in PBS supplemented with 0.5% BSA and 2 mM EDTA (PBE) on ice. All analysis was performed on a Sony SA3800 flow cytometer.
# [3] = molecular target: T2, Mouse IL-18BP (amino acids 31-194), …; test: SPR; KD(IL-18BP)/KD(IL-18Rα) normalized to WT IL-18
# [4] = molecular target: T2, Mouse IL-18BP (amino acids 31-194), …; test: yeast binding isotherms and SPR; members per FIG. 11A legend
# Description: as §1
# (§2) Experiments were conducted using a Biacore T100 and carried out at 25° C. Biotinylated IL-18Rα or IL-18BP were immobilized onto a Biacore biotin capture chip (Series S CAP sensor chip, GE Healthcare) to yield an Rmax of ˜50 RU (IL-18Rα) or ˜10 RU (IL-18BP). Measurements were made with serial dilutions of the IL-18 variants in HEPES buffered Saline-P+buffer (10 mM HEPES pH 7.4, 150 mM NaCl, 0.005% surfactant P20). The surface was regenerated by three 60-sec injections of regeneration buffer (3/4 (v/v) 8M guanidine hydrochloride with 1/4 (v/v) 1M sodium hydroxide). Experiments were performed in multiple channels simultaneously for increased observations. All data were analyzed with the Biacore T100 evaluation software version 2.0 with a 1:1 Langmuir binding model.
# [5] = molecular target: T2, Mouse IL-18BP (amino acids 31-194), …; test: SPR; KD ratio relative to WT IL-18; SPR; ratio normalized to WT
# Description: as §2
# [6] = molecular target: T1, Mouse IL-18Rα ectodomain (amino acids …); test: SPR (Biacore T100), receptor captured via biotin, IL-18 as analyte
# Description: as §2
# [7] = molecular target: T2, Mouse IL-18BP (amino acids 31-194), …; test: SPR; KD for IL-18BP over KD for IL-18Rα; SPR; ratio of two measured KD
# Description: as §2
# [8] = molecular target: T2, Mouse IL-18BP (amino acids 31-194), …; test: SPR (Biacore T100), IL-18BP captured via biotin, IL-18 as analyte; SPR, soluble variant
# Description: as §2
# [9] = molecular target: T2, Mouse IL-18BP (amino acids 31-194), …; test: on-yeast binding isotherms; 10 µM used for NBD; yeast-displayed variant; ratio computed with 10 µM put in for NBD
# Description: as §1
# [10] = molecular target: T2, Mouse IL-18BP (amino acids 31-194), …; test: on-yeast binding isotherms; KD ratio relative to WT IL-18; yeast-displayed variant; ratio normalized to WT, from the 10 µM placeholder
# Description: as §1
# [11] = molecular target: T2, Mouse IL-18BP (amino acids 31-194), …; test: SPR, immobilized biotinylated mIL-18BP, mCS2 as analyte; traces stay at or below about 2 RU during the injection (0 to about 180 s) on a 0-40 RU axis
# Description: as §2
binder,measurement,setting,value
"SEQ ID NO: 61 (murine DR-IL-18 variant mCS2) (ligand, Engineered variant) HFGRLHCTTAVIRNINDQVLFVDKRQPVFEDMTDIDQSASEPQTRLIIYAYGDSRARGKAVTLSVKDSKMSTLSCKNKIISFEEMDPPENIDDIQSDLIFFQKRVPGHNKMEFESSLYEGHFLACQKEDDAFKLILKKKDENGDKSVMFTLTNLHQS",Kd,[1],0.08 nM
same,Kd,[2],11.3 nM
same,IL-18 BP:Rα Dissociation Constant Ratio,[3],> 7.5e+07
same,Kd,[4],> 1000 nM
same,Dissociation Constant Ratio normalized to WT IL-18,[5],7.25e+07
same,Kd,[6],0.079 nM
same,KD ratio IL-18BP/IL-18Rα,[7],133000
same,Kd,[8],10500 nM
same,KD ratio IL-18BP/IL-18Rα,[9],> 885
same,Dissociation Constant Ratio normalized to WT IL-18,[10],> 4690
same,Kd,[11],> 10000 nM
